Test results from patent US20210386829A1, “COMPOSITIONS AND METHODS FOR MODULATING CGRP SIGNALING TO REGULATE INNATE LYMPHOID CELL INFLAMMATORY RESPONSES” (The Broad Institute, Inc., priority 2018, published 2021).

Tested on: lung-resident ILCs
Test: SMART-Seq2 plate-based scRNA-seq of lung-resident ILCs from PBS-, IL-25- or IL-33-treated mice, differential gene expression by logistic regression (Tables 3, 4)
Assay type: in vivo, mouse
Description: Mice and in vivo ILC activation. C57B1/6J mice were purchased from the Jackson Laboratory. Nmur1-LacZ reporter mice with a LacZ cassette knocked into the Nmur1 locus were rederived from Nmur1^tm1.1(KOMP)Vlcg sperm obtained from the trans-NIH Knock-Out Mouse Project (KOMP) Repository. NMU-deficient mice (NMU-KO) were rederived from B6.129S2-Nmu<tm1Mko> embryos from the RIKEN BioResource Center. For experiments with Nmur1-LacZ (Nmur1-KO) and NMU-KO mice, littermates that were either homozygous or heterozygous for the wild type allele were used as controls. Mice were housed under specific-pathogen-free conditions. For experiments, mice were matched for sex and age, and most mice were 6-10 weeks old. Where indicated, mice were anesthetized with Isoflurane and treated intranasally with the indicated stimuli (500 ng IL-25, 500 ng IL-33, or 20 μg Neuromedin U) daily for three consecutive days. The total administered volume was 20 μl for all conditions. Mice were randomly assigned to treatment groups after matching for sex and age. […] Mice were treated intranasally with 10 μg HDM on day 0, 7, 8, and 9, prior to sacrifice on day 10. All experiments were conducted in accordance with animal protocols approved by the Harvard Medical Area Standing Committee on Animals or BWH IACUC.
Fluorescence-activated cell sorting of innate lymphoid cells. After dissociation, single cell suspensions were incubated with CD90.2 MicroBeads (Miltenyi Biotec) on ice and enriched for CD90.2^+ cells by magnetic separation using LS columns according to the manufacturer's protocol. CD90.2^+ lung cells were then stained on ice with antibodies for sorting. ILCs were defined as 7AAD^− CD45^+ CD90.2^+ CD127^+ Lineage (CD11b, CD11c, CD19, NK1.1, […], CD4, CD8a, TCRβ, TCRγδ)^− cells and sorted on a BD FACS Aria (BD Biosciences).
For full-length scRNA-Seq, single ILCs were sorted into 96-well plates containing 5 ul TCL Buffer (QIAGEN) with 1% 2-Mercaptoethanol, centrifuged and frozen at −80° C. SMART-Seq2 protocol was carried out as previously described^23 with minor modifications in the reverse transcription step. cDNA was amplified with 22 cycles and fragmented with one-eighth of the standard Illumina NexteraXT reaction volume. Single-cell libraries were pooled and paired-end sequenced (38 bp×2) with a 75 cycle Nextseq 500 high output V2 kit.
Analysis of SMART-Seq2 plate-based scRNA-Seq data. Reads were aligned to mm10 using Kallisto (Bray, N. L., Pimentel, H., Meisted, P. & Pachter, L. Near-optimal probabilistic RNA-seq quantification. Nat Biotechnol 134, 525-527, doi:10.1038/nbt.3519 (2016)) quant, version 0.42.3. The R package tximport (Soneson, C., Love, M. I. & Robinson, M. D. Differential analyses for RNA-seq: transcript-level estimates improve gene-level inferences [version 2; referees: 2 approved]. F1000Research 4, doi:10.12688/f1000research.7563.2 (2016)), version 1.2.0, was used to convert the output to gene counts and traditional TPM values. Because of the variability in read counts per cell across plates, even from the same condition, as well as in the number of genes per cell across conditions, QC was performed for each of eight plates individually in order to remove cells that were outliers with respect to either measure. Out of 752 cells, 606 cells met QC criteria (234 from control, 152 from IL-25 treated mice, and 220 from IL-33 treated mice), and the number of genes per cell in this set ranged from 1,625 to 6,375. Genes that were not expressed with log(TPM)>2.5 in at least two cells were removed from further analysis. Subsequent analysis proceeded analogously to the droplet-based RNA-seq analysis, with parameter settings that reflected both the wider dynamic range of expression and much smaller cell numbers. The minimum ILC signature score required in ILC type assignment was 0.3. Variable genes were identified by running MeanVarPlot with x.low.cutoff=0.1, y.cutoff=1.5, and x.high.cutoff=10, resulting in a set of 519 genes. […]

B1: IL25 (protein, UniProt Q8VHH8 17-169, looked up)
Interleukin-25: VSLRIQEGCSHLPSCCPSKEQEPPEEWLKWSSASVSPPEPLSHTHHAESCRASKDGPLNSRAISPWSYELDRDLNRVPQDLYHARCLCPHCVSLQTGSHMDPLGNSVPLYHNQTVFYRRPCHGEEGTHRRYCLERRLYRVSLACVCVRPRVMA
With B1 the Med16 expression coeff was −0.61, the Mfsd1 expression coeff was 1.25 and the Mgat1 expression coeff was 1.24. For the same molecule, the Mgat5 expression coeff was 1.02, the Mier3 expression coeff was −0.901 and the Mkl2 expression coeff was −1.12. It also gave a Mlec expression coeff of 0.715, a Morc3 expression coeff of 0.662 and a Mov10 expression coeff of 1.08. For the same molecule, the Mplkip expression coeff was −0.607, the Mrp63 expression coeff was 1.09 and the Mrpl40 expression coeff was −0.837. It also gave a Mrpl52 expression coeff of 0.158, a Mrpl53 expression coeff of −1.87 and a Mrps18a expression coeff of −1.24. It also gave a Ms4a4b expression coeff of 3.49, a Ms4a6b expression coeff of 3.22 and a Mtfmt expression coeff of −2.15. For the same molecule, the Mxd1 expression coeff was 0.448, the Mybbp1a expression coeff was −0.514 and the Myg1 expression coeff was −1.33. The Myo1f expression coeff was 0.897, the Myo1g expression coeff was 0.257 and the Naa60 expression coeff was 0.241. The Nbn expression coeff was −0.499, the Ndufaf3 expression coeff was 1.45 and the Neu3 expression coeff was −2.64. For the same molecule, the Nfil3 expression coeff was 2.04, the Nipal1 expression coeff was 1.61 and the Nlrc5 expression coeff was 0.93. The Nol6 expression coeff was −1.65, the Nol9 expression coeff was −0.775 and the Nop56 expression coeff was −0.619. It also gave a Npc2 expression coeff of 0.143, a Npnt expression coeff of 0.056 and a Nrip1 expression coeff of 0.668. It also gave a Nsmaf expression coeff of 1.41, an Oas1a expression coeff of 0.0294 and an Ogfr expression coeff of 0.578. For the same molecule, the Omd expression coeff was −1.12, the Parp3 expression coeff was 0.335 and the Parp10 expression coeff was 0.371. For the same molecule, the Parp14 expression coeff was 0.934, the Paxip1 expression coeff was −1.15 and the Pdcd1 expression coeff was 1.04. For the same molecule, the Pde4b expression coeff was 0.735, the Per1 expression coeff was −0.785 and the Pfas expression coeff was −0.546. The Phc3 expression coeff was 0.476, the Phf11a expression coeff was 1.52 and the Phf11b expression coeff was 1.38. It also gave a Picalm expression coeff of 1.79, a Pigv expression coeff of −2.73 and a Pin4 expression coeff of 0.928. It also gave a Plac8 expression coeff of 0.268, a Plekha5 expression coeff of −1.01 and a Plxdc2 expression coeff of −0.906. It also gave a Pml expression coeff of 1.04, a Ppif expression coeff of −1.14 and a Ppp1r15a expression coeff of 0.186. The Pydc4 expression coeff was 1.52, the Pyhin1 expression coeff was 0.623 and the Rab7l1 expression coeff was 1.18. It also gave a Rab8b expression coeff of 1.5, a Rab33b expression coeff of −1.3 and a Rdh1 expression coeff of −2.49. The Rdh13 expression coeff was −1.37, the Rilpl2 expression coeff was 1.4 and the Rnf125 expression coeff was 1.65. It also gave a Rtp4 expression coeff of 0.866, a Samd9l expression coeff of 0.773 and a Sbno2 expression coeff of 1.09. The Sdc4 expression coeff was 0.206, the Sdccag3 expression coeff was 0.312 and the Sema4a expression coeff was −0.348. The Sema4d expression coeff was 0.548, the Sesn3 expression coeff was 0.328 and the Shank2 expression coeff was −3.19. It also gave a Sipa1 expression coeff of 1.56, a Slc25a24 expression coeff of 0.607 and a Slc44a2 expression coeff of 0.294. The Slfn2 expression coeff was 0.267, the Smn1 expression coeff was −1.53 and the Sntb1 expression coeff was 1.29. It also gave a Soat1 expression coeff of 0.339, a Socs1 expression coeff of −1.36 and a Socs2 expression coeff of −0.923. For the same molecule, the Socs3 expression coeff was 1.02, the Sp100 expression coeff was 0.451 and the Sptssa expression coeff was −0.974. It also gave a Ssr3 expression coeff of 0.609, a St3gal6 expression coeff of −0.764 and a Stab1 expression coeff of 1.24. For the same molecule, the Stat1 expression coeff was 1.88, the Syt11 expression coeff was 0.291 and the Taf1d expression coeff was 1.28. It also gave a Tango6 expression coeff of −1.32, a Tap1 expression coeff of 0.561 and a Tap2 expression coeff of 0.406. The Tet3 expression coeff was 1.62, the Tmem33 expression coeff was 1.18 and the Tmem176a expression coeff was −0.146. For the same molecule, the Tmem176b expression coeff was −0.422, the Tmem209 expression coeff was −0.847 and the Tmem229b expression coeff was 0.199. For the same molecule, the Tnfrsf18 expression coeff was −1.25, the Tnfsf10 expression coeff was −1.18 and the Tpm4 expression coeff was 0.311. It also gave a Tradd expression coeff of 0.964, a Trafd1 expression coeff of 0.993 and a Trim12c expression coeff of 0.974. It also gave a Trim30a expression coeff of 1.17, a Trim34a expression coeff of 0.632 and a Trim30d expression coeff of 0.527. It also gave a Trip13 expression coeff of −1.91, a Trp53inp1 expression coeff of 1.28 and a Ttc19 expression coeff of 0.891. For the same molecule, the Ttc39b expression coeff was 0.546, the Ube2h expression coeff was 0.767 and the Usp18 expression coeff was 1.1. The Usp36 expression coeff was −0.645, the Vdr expression coeff was −0.748 and the Vmp1 expression coeff was 1.49. It also gave a Xrcc3 expression coeff of −1.4, a Zbp1 expression coeff of 0.971 and a Zc3h12a expression coeff of −1.14. It also gave a Zcchc10 expression coeff of −1.82, a Zfand6 expression coeff of 0.659 and a Zfc3h1 expression coeff of 0.466. It also gave a Zfp110 expression coeff of −0.396 and a Zfp825 expression coeff of −1.4.
